According to patent publication US20160052996A1 (NEURIMMUNE, published 2016):
Residue numbers refer to the chain shown, from its start.

B1: NI-307.3G4 (antibody, V domains shown)
VH: QVQLVQSGAELKKPGAAVKVSCQASGYNFLSYGINWVRQIPGQGLQWLGWISTYDGTMNYDQKPDNRVTVTTDTSSSTVYLELRGLRSDDTGVYYCVRDRCAGAGCSHSLGYWGQGTLVTVSS
VL: DIQMTQSPSALSASVGDRVTISCRASQNINTQLNWYQEKPGKAPELLIYGAFNLQSGAPSTFSGSGSGTDFTLTITSLQPEDFASYYCQQGFHAPYTFGRGTKVDIK
B2: NI-307.6A2 (antibody, V domains shown)
VH: QVQLQESGPGLVKPSETLSLTCAVSGGSVSSSYWYSWVRQLPGKGLEWIGEIFHTGDTNYNPSLESRVTISIDTSKNQLSLDVTSATAADTAVYYCARDYCTDSGCDSDALDVWGHGTMVTVSS
VL: QSALTQPASVSGSPGQSITISCTGTTKDVGNYNLVSWYQQHPGKAPRLVIYEVSERPSGVSNRFSGSKSGNTASLTISGLQAEDEADYHCCSYAGSGTSVFGGGTKVTVL
B3: NI-307.19F10 (antibody, V domains shown)
VH: EVQLVESGGGLVQPGGSVSLSCAASGFTFPVYWMHWVRQAPEKGLMWVSRISPDGTIVDYAGSVKGRFTVSRDNAKNILYLQIQRLTAEDTAVYFCTKDFDVASGFWGQGTLVTVSS
VL: QSALTQPPSASGSPGQSVTISCTGSKSDVGTCHFVSWYQQHPGKVPKLVIYEGNKRPSGVPDRFSASKSGNTASLTISGLQPGDEADYYCSTCAGPNNYVFGTGTKVTVL
B4: NI-307.43A11 (antibody, V domains shown)
VH: QVQLQESGPGLVKPSGTLSLTCAVTGGSISSSNWWSWVRQSPGKGLEWIGEIHHDGNLNYNPLLKSRVSMSLDRSKNQFSLKLTSVTAADTAVYYCARWDFFFDSSYYIRGFDLWGQGTMVTVSS
VL: ETTLTQSPGTLSLSPGERVTLSCRASQSVDRNYLAWYQQKPGQSPRLLIYSASRRATGIPDRFSGSGSGTDFTLTISRLEPEDFVVYYCQQYGGSPPITFGQGTRLEIK
B5: NI-307.20F5 (antibody, V domains shown)
VH: EVQLVESGGGVVQPGTSLRLSCAASGFSFNKYGVHWVRQAPGKGLEWVANIWYDGTNPFYADFVKGRFVISRDTSKNTIYLQMNRLRAEDTAVYYCARDAFCGGDCYGGLLHGLDVWGQGTTVTVSS
VL: DVVMTQSPLSLPVTPGEPASISCRSSQSLLHSNGLNYLDWYLQKPGQSPQLLIYLGSNRAPGVPDRFSGSGSGTDFTLKISRVEAEDVGVYYCLQALQTPAFGQGTKVEIK
B6: NI-307.24F3 (antibody, V domains shown)
VH: QVQLQESGGGVVQPGRSLRLSCAASGFSFNRYGMHWVRQAPGKGLEWLAVISNDGVNTHYADSVKGRFTISRDNSKSTLYLQASSLRVEDTAVYYCAGYYYGSGTSLFFYWGQGTLVTVSS
VL: EIVLTQSPDSLAVSLGERATINCKSSQTVLYSSNNQNYLAWYQQKPGQPPKLLLYWASTRESGVPDRFSGSGSGTDFTLTISSLQPEDVAVYYCQQYYTAPYTFGQGTKVEIK
B7: NI-307.26A3 (antibody, V domains shown)
VH: EVQLVESGGVLVQPGGSLRLSCAASGFTFSSYAMTWVRQAPEKGLEWVSTIIGNGAYTYYADSVKGRFTISRDNSKNTLILQMNSLRADDAAVYYCAKGTELAPYYYYFALDVWGQGTTVTVSS
VL: EIVLTQSPGTLSLSPGERATLSCRASQSISSSHLAWYQQKPGQAPRLLIYGASSRATGIPDRFSGGGSGTDFTLTITRLEPEDFAVYYCQQYGSSPYTFGQGTKLEIK
B8: NI-307.27C2 (antibody, V domains shown)
VH: EVQLVESGGGLVKPGGSLRLSCAASGFTFSSYTMNWVRQAPGKGLQWVSSISSSSTYMYYGDSVKGRFTISRDNARNSLYLQMNSLRVEDTAVYYCARYAHDWNVDYWGQGTLVTVSS
VL: QSVLTQPPSASGTPGQRVTISCSGGSSNIGSNPVNWFQQFPGTAPKLLIYANTQRPSGVPDRFSGSKSGTSVSLAISGLQSEDEGDYHCAAWDDSLKGWVFGGGTKLTVL
B9: NI-307.27C11 (antibody, V domains shown)
VH: QVQLQESGPGLVKPSGTLSLTCAVSGDSISSSNWWSWVRQPPGKGLEWIGEIYHSGGTKYNPSLKSRVTISVDKSKNHFSLKLRSVTAADTAVYYCARNRWFDNNRGGYYYYGMDVWGQGTTVTVSS
VL: DIQMTQSPSSLSASVGDRVTITCRASQGISSYLNWYQQKPGKAPKLLISATSDLQSGVPSRFSGSGSGTDFTLTISSLQPEDFATYYCQQSYSTPYTFGQGTKLEIK
B10: NI-307.50H4 (antibody, V domains shown)
VH: B9 VH with G45R, T122M
VL: B9 VL with S26G, S31T, K45N, S49Y, S93N, T94N, L104V
B11: NI-307.29B1 (antibody, V domains shown)
VH: EVQLVESGGGLVKPGGSLRLSCAASGITFQYYAMNWVRQAPGKGLEWVSSIGGRGDTTYYTDSVKGRFTISRDNSKSTLYLQMNSLRAEDTAVYYCAKEPFDSSGDHRGVFDYWGQGTLVTVSS
VL: QSVVTQPPSVSGAPGQRVTISCAGSRSNIGAGYDVNWYQQLPRTAPKLLIYDNTRRPSGVPARFSGSKSGSSASLTITGLQAEDEADYYCQSYDSKLNKVFGGGTKLTVL
B12: NI-307.43E8 (antibody, V domains shown)
VH: EVQLVESGGDVVQPGRSLRLSCAASGFAFSIYAMNWVRQAPGKGLEWVALISTSGTEHYADSVKGRFTISRDNSKNTLFLQINSLRVEDTAVYYCARDLDSTGYYENNYWGQGTLVTVSS
VL: DVVMTQSPLSSPVSLGQPASISCRSSHSLVHSNGDTYLSWLQQRPGQPPRLLIYKISNRFSGVPDRFSGSGAGTDFTLKISRVEAEDVGVYFCMQATSFPRTFGQGTKVEIK
B13: NI-307.45E10 (antibody, V domains shown)
VH: EVQLVESGGGLVQPGGSLRLSCAASGFSFRFYAMNWVRQAPGKGLEYVSGISGGGGTTYYADSVKGRFTISRDNSKNTLYLQMKSLRAEDTAIYYCAKDQSYCSGAGCHPYYLDYWGQGTLVTVSS
VL: SYVLTQPPSVSVAPGQTARITCGGNNIGSKSVHWYQQKPGQAPVVVVYDDSGRPSGMPERFSGSNSGNTATLTISRVEAGDEADYYCQVWDSSSDHLYVFGTGTKVTVL
B14: NI-307.105C7 (antibody, V domains shown)
VH: B13 VH with R30G, I51V, T57S, A106G, G107S
VL: B13 VL with M57I, L97P
B15: NI-307.47B11 (antibody, V domains shown)
VH: EVQLVESGGGLVKPGGSLRLSCAASGFTFSDYYMNWIRQAPGKGLEWLSCISSSGNTIYYADSVKGRFTISRDNAKNSLYLQMNSLRAEDTAVYYCARDLDKAATGRPYFDYWGQGTLVTVSS
VL: not shown
B16: NI-307.53B11 (antibody, V domains shown)
VH: EVQLVQSGAEVKKPGESLKISCKGSGYSFTSYWIGWVRQMPGKGLEWMGIIYPGDSDTRYSPSFQGQVTISADKSITTAYLQWSSLKASDTALYYCARRGSGSFSNYDFWGQGTLVTVSS
VL: QSALTQPRSVSGSPGQSVTISCTGTSSDVGAYNYVSWYQQHPVKAPKLMIYDVSKRPSGVPDRFSGSRSGNTASLTISGLQADDEADYYCCSYAGTYTVLFGGGTKLTVL
B17: NI-307.56A8 (antibody, V domains shown)
VH: B8 VH with T33R, Q46E, T56S, M58I, R76K, N84S, V88A, V105I
VL: not shown
B18: NI-307.57D4 (antibody, V domains shown)
VH: EVQLVESGGGLVQPGRSLRLSCAASGFTFDHYAMHWVRQVPGRGLEWVSGVTWNSGIIGYADSVKGRFTISRDNAKNSLYLQMTSLRAEDTALYYCAKGTNDFVSYGLDVWGQGTTVTVSS
VL: QSVLTQPPSVSGAPGQRVSISCTGTSSNLGAGFDVHWYQQIPRKAPELLIYGNSIRPSGVPDRFSGSKSGTSASLAITGLQAEDEADYYCQSYDSRLSGSVFGGGTKLTVL
B19: NI-307.59A7 (antibody, V domains shown)
VH: EVQLVESGGGLVQPGGSLRLSCAASGFTFSSYEMNWVRQAPGKGLEWVSYISSSGTNIYHADSVKGRFTISRDNAKNSLYLQMNSLRAEDTAVYYCARDGPSPRGHNYGHDYWGQGTLVTVSS
VL: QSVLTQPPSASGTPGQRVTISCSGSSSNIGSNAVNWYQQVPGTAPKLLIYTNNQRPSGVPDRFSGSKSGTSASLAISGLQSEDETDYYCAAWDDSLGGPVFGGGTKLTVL
B20: NI-307.72F7 (antibody, V domains shown)
VH: EVQLVESGGGLVQPGGSLRLSCAASGFTFSSYEMNWVRQAPGKGLEWISYISSRGSTIHYADSVKGRFTISRDDAKNSLYLQMNSLRAEDTAIYYCARDRYDFWSGCIKGCYYGMDVWGQGSTVTVSS
VL: EIVLTQSPGTLSLSPGQRATLSCRASQSISSSYLAWYQQRRGQAPRLLIYGASSRATGIPDRFSGSGSGTDFTLTISRLEPEDFAVYYCQHYGTTLTFGQGTKVDIK
B21: NI-307.72F10 (antibody, V domains shown)
VH: EVQLVESGGGVVQPGRSLRLSCATSGFTFDDYAMHWVRQAPGKGLEWVSGLTWSSSGVGYADSVKGRFTISRDNAKNSLYLQMNSLRAEDTALYYCAKGSGEWLRLGQDYWGQGTLVTVSS
VL: QSVLTQPPSVSGTPGQRVTISCTGSSSNIGAGYDVHWYQQLPGTAPKLLIYDNSNRPSGVPDRFSGSKSGTSASLAITGLQAEDEAHYYCQSFDSSLSGSVFGGGTKLAVL
B22: NI-307.98H1 (antibody, V domains shown)
VH: QLQLQESGPGLVKPSQTLSLTCAVSGASISSGTYYWGWIRQHPGKGLEWIGYIYPSGSTYYNPSLKSRVIISLDTSKSQFSLNLSSVTAADTAVYYCARDYYDSSGHMGGYYHYAMDVWGQGTTVTVSS
VL: DIQLTQSPSSLSASVGDRVTITCRASQSISSHLNWYQQKPGKVPKLLIYAASTLQSGVPSRFSGSGSGTDFTLAISSLQPADFATYYCQQSYSTPRTFGQGTKVDIK
B23: NI-307.105A6 (antibody, V domains shown)
VH: EVQLVESGGGLVQPGRSLRLSCAASGFTFDDYAMHWVRQAPGKGLEWVSGITWNSGSIGYADSVKGRFTISRDNAKNSLYLQMNSLSAEDTALYYCAKGARDYLSYGMDVWGQGTTVTVSS
VL: B21 VL with L4V, T13A, Y51F, D52S, S54T, N55I, H87N, F93Y, A109T

Each binder was assayed against T1, BSA (Sigma-Aldrich) (bovine, UniProt P02769 25-607) (assay: direct ELISA).
T1 construct: also called bovine serum albumin
T1 sequence (P02769 25-607 limits assumed): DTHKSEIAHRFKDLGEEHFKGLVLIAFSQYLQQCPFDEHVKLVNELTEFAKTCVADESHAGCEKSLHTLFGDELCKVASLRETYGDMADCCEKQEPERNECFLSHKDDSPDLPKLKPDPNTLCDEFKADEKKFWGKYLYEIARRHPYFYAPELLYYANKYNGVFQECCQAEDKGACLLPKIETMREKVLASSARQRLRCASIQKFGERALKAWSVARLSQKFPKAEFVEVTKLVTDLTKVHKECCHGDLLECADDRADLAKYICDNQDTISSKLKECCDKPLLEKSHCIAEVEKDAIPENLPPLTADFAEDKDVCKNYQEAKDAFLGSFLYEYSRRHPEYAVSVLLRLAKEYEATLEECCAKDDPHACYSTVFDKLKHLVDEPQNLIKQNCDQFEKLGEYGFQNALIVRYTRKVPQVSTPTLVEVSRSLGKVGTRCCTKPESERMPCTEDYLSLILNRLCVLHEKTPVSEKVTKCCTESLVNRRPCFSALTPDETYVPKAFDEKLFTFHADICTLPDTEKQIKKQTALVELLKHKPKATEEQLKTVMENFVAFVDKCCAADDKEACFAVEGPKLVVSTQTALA
B1: no binding.
B2: no binding.
B3: no binding.
B4: no binding.
B5: no binding.

The binders below were run against T2, JCV VP1 VLP (JC virus (JCV), Mad-1 strain, UniProt P03089 1-354) (assay: direct ELISA).
T2 construct: also called JCV VP1 VLPs; JCV VP1 (coating with reassociation buffer)
With B1 the EC50 was 28.2 nM.
With B2 the EC50 was 1.39 nM.
Binder B3 has an EC50 of 3.41 nM.
Work on B6 yielded an EC50 of 6.95 nM.
For B4, the EC50 was 6.15 nM.

Each binder was assayed against T2, JCV VP1 VLP (assay: direct ELISA, plate coated with antigen at 5 µg/ml in reassociation buffer (VLP); EC50 by non-linear regression (GraphPad Prism)).
In the case of B7, the EC50 is reported as 0.049 nM.
B8 gave an EC50 of 0.052 nM.
B9 was tested, and the EC50 was 0.042 nM.
In the case of B10, the EC50 is reported as 0.055 nM.
With B11 the EC50 was 0.076 nM.
In the case of B12, the EC50 is reported as 0.64 nM.
For B13, the EC50 was 0.024 nM.
Binder B14 has an EC50 of 0.04 nM.
In the case of B15, the EC50 is reported as 0.048 nM.
Work on B16 yielded an EC50 of 0.064 nM.
Binder B17 has an EC50 of 0.041 nM.
B18 showed an EC50 of 0.053 nM.
B19 gave an EC50 of 0.066 nM.
In the case of B20, the EC50 is reported as 0.019 nM.
Binder B21 has an EC50 of 0.031 nM.
B22 was tested, and the EC50 was 0.086 nM.
B23 showed an EC50 of 0.069 nM.
